Test results reported in patent publication US7790697B2, “Compositions and methods for inhibiting the synthesis or expression of MMP-1” (Trustees of Dartmouth College, priority 2004, dated 2010).

Tests used:
[1] = system: MDA-231 cells in type I collagen gel; assay: In vitro collagen gel destruction assay; format: cell-based; conditions: MDA-231 cells producing the shRNA
Experimental: In vitro Collagen Gel Destruction Assay. Collagen preparations were carried out on ice to prevent premature jelling. A solution of purified type I bovine collagen (Cohesion Technologies, Palo Alto, Calif.) was neutralized with a sterile 10× phosphate-buffered saline (pH 7.4), and 0.1 M NaOH. The solution of neutralized collagen (2 mg/mL) was mixed with an equivalent volume of cells suspended in serum free DMEM to yield a final concentration of 2×10^5 cells/mL in 1 mg/mL fibrillar collagen, and 1 mL of the collagen/cell mixture was added to each well of a six-well plate. After approximately 1 hour, the collagen jelled, and 1 mL of serum-free media was added on top of the gel. For some experiments, 25 μM ILOMASTAT® (CHEMICON®, Temecula, Calif.), 50 U/mL aprotinin (Sigma, St. Louis, Mo.), 1 μg/mL neutralizing MMP-1 antibody (MMP-1 ab-5; ONCOGENE™ Research Products, San Diego, Calif.), 1 μg/mL monoclonal FLAG® antibody (Sigma, St. Louis, Mo.), or 1% DMSO were added to the collagen before it jelled. After 36 hours of incubation at 37° C. the medium was removed from the top of collagen gels and weighed. The weight of media added at the start of the 37° C. incubation (1 gram) was subtracted from the total media weights to reveal the amount of media liberated by collagen gel destruction.
An in vitro collagen destruction assay was developed to determine whether the MMP-1 levels in MDA-231 cells with the empty vector were functionally capable of degrading a collagen matrix, and whether the shRNA-mediated reduction in MMP-1 was sufficient to change the invasive behavior of the cells. MDA-231 cells harboring either the empty vector or the MMP-1 shRNA were embedded in a solution of type I collagen (1 mL). The collagen was allowed to solidify at 37° C., and 1 mL of serum-free medium was layered on top of each gel. After 36 hours at 37° C., the medium was removed from each well and photographs were taken. No collagen was visible in wells containing MDA-231 cells with the empty vector. […] The medium removed from each well was weighed to quantitate the amount of medium liberated as the gel was destroyed. After 36 hours, approximately 1 mL (0.8±0.06 grams) of medium was liberated from the collagen gels containing the MDA-231 cells with the empty vector. […] Conversely, no medium (−0.01±0.03 grams) was liberated from collagen gels containing MDA-231 cells producing the MMP-1 shRNA. The slight decrease in the volume of medium recovered may be due to evaporation of the medium during the incubation period.

[2] = system: MMP-2 mRNA; assay: Specificity qRT-PCR, MMP-2 mRNA in stable MDA-231 cells; format: cell-based, human; conditions: stable MDA-231 cell lines, 24 hour serum-free; group average ± S.D.; P=0.3 vs empty vector
From the text: RNA Isolation and Real-Time RT-PCR. […] Real-Time PCR Primer Sequences. […] ID NO:7; MMP-1 reverse [NT] ID NO:8; MMP-2 forward [NT] ID NO:9; MMP-2 reverse [NT] ID NO:10; MMP-9 forward [NT] ID NO:11; MMP-9 reverse [NT] ID NO:12; MMP-13 forward [NT], SEQ ID NO:13; MMP-13 reverse [NT] ID NO:14; MMP-14 forward [NT] ID NO:15; MMP-14 reverse [NT] ID NO:16; GAPDH forward [NT] ID NO:17; GAPDH reverse [NT] ID NO:18; eGFP forward [NT] ID NO:19; eGFP reverse [NT] ID NO:20. Real-Time PCR Standards.

[3] = system: MMP-1 mRNA; assay: MMP-1 mRNA by real-time RT-PCR in transiently transfected NIH/3T3 cells; format: cell-based, human; conditions: NIH/3T3 cells co-transfected with pCMV-MMP-1 and peGFP; 48 hours after transfection; normalized to eGFP mRNA; P=0.015
Experimental: Transfection of NIH/3T3 and MDA-231 Cells. NIH/3T3 cells were transiently transfected with LIPOFECTAMINE™ 2000 (INVITROGEN™, Carlsbad, Calif.) along with 0.5 μg peGFP, 0.5 μg pCMV-MMP-1, and 2 μg PSUPER™-MMP-1 shRNA or PSUPER™ with no insert. Transfection efficiency was monitored using eGFP signal. Total cellular RNA was harvested 48 hours after transfection and analyzed for MMP-1 mRNA by real-time RT-PCR. MDA-231 cells were stably transfected in triplicate with LIPOFECTAMINE™ 2000 (INVITROGEN™, Carlsbad, Calif.) and 2 μg of the PSUPER™.Retro.Neo.GFP plasmid containing the MMP-1 shRNA, the scrambled sequence or just the empty vector. Stable cell lines were selected by growth in the presence of 1 mg/mL G418 (STRATAGENE®, La Jolla, Calif.). Individual, stable cell lines were isolated with cloning disks according to the manufacturer's instructions (PGC Scientifics, Frederick, Md.).
RNA Isolation and Real-Time RT-PCR.
To test the efficacy of the shRNA inhibition of MMP-1 expression, shRNA composed of SEQ ID NO:1 and SEQ ID NO:2 was cloned it into the PSUPER™ shRNA vector. Two PSUPER™ plasmids were used; one with the MMP-1 shRNA sequence to block MMP-1 gene expression, and one with only the plasmid vector. […]

B1: MMP-1 shRNA: Vector-expressed small hairpin RNA, SEQ ID NO:1 (sense) and SEQ ID NO:2 (antisense), specific to bases 234-252 of MMP-1 mRNA (nucleic acid)
sense: GATCCCCACCAGATGCTGAAACCCTGTTCAAGAGACAGGGTTTCAGCATCTGGTTTTTTGGAAA
antisense: AGCTTTTCCAAAAAACCAGATGCTGAAACCCTGTCTCTTGAACAGGGTTTCAGCATCTGGTGGG
modifications: the letters are possibly those of the target site
appearance of collagen gel ([1]; 36 hours): appeared to be intact
medium liberated from collagen gels ([1]; 36 hours at 37° C.): −0.01±0.03 grams
collagen gel destruction ([1]; as long as five days): no collagen gel destruction
MMP-2 mRNA level [2]: 8.8 ± 7.8 copies of the target gene/pg GAPDH
MMP-1 mRNA levels lower than empty vector [3]: 73%
